# Data as given in US7883707B2, “Induction of antigen specific immunnologic tolerance” (priority 2002, dated 2011).
# Several values for one entry are separate records, joined by “and”; a condition that tells them apart may be missing. Equal values may be shown once. Entries after “also recorded” stand apart in the source; their conditions may differ.
# B1: iduronidase: recombinant human α-L-iduronidase, lysosomal hydrolase with mannose 6-phosphate marker (protein, UniProt P35475 28-653, looked up)
# Alpha-L-iduronidase: APHLVHVDAARALWPLRRFWRSTGFCPPLPHSQADQYVLSWDQQLNLAYVGAVPHRGIKQVRTHWLLELVTTRGSTGRGLSYNFTHLDGYLDLLRENQLLPGFELMGSASGHFTDFEDKQQVFEWKDLVSSLARRYIGRYGLAHVSKWNFETWNEPDHHDFDNVSMTMQGFLNYYDACSEGLRAASPALRLGGPGDSFHTPPRSPLSWGLLRHCHDGTNFFTGEAGVRLDYISLHRKGARSSISILEQEKVVAQQIRQLFPKFADTPIYNDEADPLVGWSLPQPWRADVTYAAMVVKVIAQHQNLLLANTTSAFPYALLSNDNAFLSYHPHPFAQRTLTARFQVNNTRPPHVQLLRKPVLTAMGLLALLDEEQLWAEVSQAGTVLDSNHTVGVLASAHRPQGPADAWRAAVLIYASDDTRAHPNRSVAVTLRLRGVPPGPGLVYVTRYLDNGLCSPDGEWRRLGRPVFPTAEQFRRMRAAEDPVAAAPRPLPAGGRLTLRPALRLPSLLLVHVCARPEKPPGQVTRLRALPLTQGQLVLVWSDEHVGSKCLWTYEIQFSQDGKAYTPVSRKPSTFNLFVFSPDTGAVSGSYRVRALDYWARPGPFSDPVPYLEVPVPRGPPSPGNP
# B2: dephospho iduronidase: recombinant iduronidase dephosphorylated by incubation with acid phosphatase bound to beads (protein, UniProt P35475 28-653, looked up)
# Alpha-L-iduronidase: B1 Alpha-L-iduronidase
# modifications: dephosphorylated
# B3: ovalbumin: non-phosphorylated protein antigen with mannose terminated N-linked oligosaccharides (protein, UniProt P01012 2-386, looked up)
# Ovalbumin: GSIGAASMEFCFDVFKELKVHHANENIFYCPIAIMSALAMVYLGAKDSTRTQINKVVRFDKLPGFGDSIEAQCGTSVNVHSSLRDILNQITKPNDVYSFSLASRLYAEERYPILPEYLQCVKELYRGGLEPINFQTAADQARELINSWVESQTNGIIRNVLQPSSVDSQTAMVLVNAIVFKGLWEKAFKDEDTQAMPFRVTEQESKPVQMMYQIGLFRVASMASEKMKILELPFASGTMSMLVLLPDEVSGLEQLESIINFEKLTEWTSSNVMEERKIKVYLPRMKMEEKYNLTSVLMAMGITDVFSSSANLSGISSAESLKISQAVHAAHAEINEAGREVVGSAEAGVDAASVSEEFRADHPFLFCIKHIATNAVLFFGRCVSP
# Assays:
# [1] = test system: IgA and IgE antibodies to iduronidase; experiment: ELISA for IgG, IgA and IgE antibodies to iduronidase in canine sera; type: in vivo; conditions: before vs after 12 weekly infusions with iduronidase
# From the text: The tolerance regimen in canine prevents the induction of IgG as manifested by a decrease in total IgG response against iduronidase as compared to the IgG response observed in non-tolerant canines. […] Analyses of the immune sera of canines that were either tolerant (dogs […] and SA) or canine controls (dogs RU and UM) that had not received the tolerizing regimen were studied for the presence of IgG, IgA and IgE antibodies to iduronidase.
# Hurler fibroblasts = experiment: Half maximal uptake (Kuptake) of iduronidase into Hurler fibroblasts; type: cell-based
# From the text: It is especially preferred that the receptor has a Kuptake for the ligand of at least about 10^−6 M, usually at least about 10^−7 M more usually at least about 10^−8 M and preferably at least about 10^−9 M where Kuptake represents the concentration of ligand at which half maximal uptake occurs in a cell. Receptors of interest include the transferrin receptor, the melanotransferrin receptor, mannose 6-phosphate receptor, growth hormone receptor, and the like. Cognate ligands include: insulin-like growth factor II (IGF2), transferrin, growth hormone, insulin, and binding fragments thereof, particularly polypeptides having specific and high affinity receptors on diverse cell types. Single chain antibodies and binding agents from randomized phage display systems could be used if they have adequate affinity for the receptor. To determine the Kuptake of a ligand and receptor combination, methods known in the art may be used, for example see Kakkis et al. (1994) Protein Expr Purif 5(3):225-32 for assays used to determine the Kuptake of alpha-L-iduronidase. The disclosed methods are readily adapted to any ligand and receptor combination. Such assays are also useful in verifying the uptake of toleragens comprising exogenous high uptake moieties.
# Enzyme Infusions. […] Animals monitored for an anaphylactic reaction. […]
# [2] = dog, in vivo
# Method: Canines were administered 14,000 U/kg/week α-L-iduronidase or higher dose as dose was ramped up, in a 50 mL infusion in saline containing 1 mg/mL canine albumin, 10 mM NaPO4, pH 5.8. Administered intravenously over 2 hours (1st hour 3,000 U/kg/hr; 2nd hour 11,000 U/kg/hr, or a higher rate in the 2nd hour depending on the dose). Animals were monitored for anaphylactic reaction.
# [3] = test system: antibody titer to iduronidase; experiment: ELISA antibody titer to iduronidase in canines on weekly iduronidase infusions, with or without tolerance regimens
# Method: Normal and MPS I canines were obtained from the MPS I canine colony at Harbor-UCLA. The dogs are a cross between beagles and Plott hounds and average 12-20 kg in weight. The canines were under 2 years of age and at least 4 months of age for these experiments.
# Enzyme Infusions. […] For toleragenic infusions, 14,000 U/kg/week α-L-iduronidase in 50 mL infusion in saline with 1 mg/mL canine albumin, and 10 mM NaPO4 was administered intravenously over 2 hours (1st hour 3,000 U/kg/hr; 2nd hour 11,000 U/kg/hr). Animals monitored for an anaphylactic reaction.
# Canines were initiated on immunosuppressive drugs at day 0, equivalent to 18 days prior to the first enzyme challenge. If scheduled, the canines received monoclonal antibodies by intravenous infusion (2-5 mg) just prior to ITI. On day 4, the dogs received, if scheduled, an intrathymic injection of iduronidase at 1 mg/kg. Two weeks later, the dogs were begun on a weekly schedule of iduronidase enzyme infusions consisting of a weekly intravenous infusion of 14,000 U/kg (0.056 mg/kg/wk) of human recombinant iduronidase.
# All canines received 0.056 mg/kg/week rh iduronidase intravenous challenges. Pre treatment ELISA values represent serum antibody levels prior to first antigen challenge with iduronidase.
# Iduronidase was the same high uptake iduronidase as described above. The canines were challenged with 0.58 mg/kg of enzyme administered intravenously on a weekly basis for 3-6 doses.
# ovalbumin = experiment: Attempted induction of tolerance to ovalbumin; type: in vivo; conditions: ovalbumin with mannose terminated N-linked oligosaccharides
# From the text: The titer in the tolerance dogs stayed low for several months and was studied in RO and SA for 6 months of weekly infusions (FIG. 2).
Molecule,increase in IgA or IgE titer to iduronidase [1] [fold],Kuptake (enzyme concentration at half maximal uptake) (Hurler fibroblasts),anaphylactic / anaphylactoid reaction during the infusion [2],"mean antibody titer after 12 weekly infusions of rhIDU ([3]; ELISA, eight normal and MPS I canines vs eight control canines) [OD units/μl serum]","Antibody levels at week 15 ([3]; MPS I canines, iduronidase raised stepwise to 0.500 mg/kg/week at week 15) [OD Units]","titer on reexposure (anamnestic response) ([3]; canine Nitro, after nearly 6 months hiatus, 0.5 mg/kg/wk infusions)",further increase in antibody titer on higher therapeutic doses ([3]; immune responsive canines),"induction in antibody titer on rechallenge ([3]; non-tolerant canine RU, after 2 doses of enzyme following 4.5 month hiatus) [fold]","titers by week 14 of enzyme therapy ([3]; two MPS I canines previously treated with 0.5 mg/kg/wk, no tolerance regimen, 0.5 mg/kg)","mean antibody titer on higher therapeutic doses of iduronidase ([3]; up to 6 months, n=6 tolerant, n=2 immune responsive) [OD/μl serum]","tolerance induction with this form of the toleragen ([3]; canines, applied with the tolerance regimen (CsA+Aza), listed as dephosphorylated rhIDU)",induction of tolerance to ovalbumin (ovalbumin)
B1,~10,about 1 nanomolar,serious clinical anaphylactic reaction,149,> 500,≥ 400,2-3 fold,> 20,1800 and 2000,369,–,–
B2,–,too low to be calculated,–,–,–,–,–,–,–,–,did not allow induction of the tolerant state,–
B3,–,–,–,–,–,–,–,–,–,–,–,did not succeed; also recorded: could not
